Test results as given in publication PMC9482650, “Quantitative fragmentomics allow affinity mapping of interactomes” (Nature Communications, 2022).

How the values were obtained:
Experiment in all cases: holdup assay
Parameters in all cases: key: below the threshold = too weak to quantify, mostly under pKd 3.1 to 4
HTRA1, Q92743 = target: HTRA1, Q92743
GRIP1_3, Q9Y3R0 = target: T1, GRIP1_3, Q9Y3R0
T1 sequence (Q9Y3R0 247-346, limits assumed, looked up): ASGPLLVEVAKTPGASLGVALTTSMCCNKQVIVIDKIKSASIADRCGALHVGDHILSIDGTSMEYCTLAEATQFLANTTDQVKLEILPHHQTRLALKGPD

HTRA4, P83105 = target: T2, HTRA4, P83105
T2 sequence (P83105 378-476, limits assumed, looked up): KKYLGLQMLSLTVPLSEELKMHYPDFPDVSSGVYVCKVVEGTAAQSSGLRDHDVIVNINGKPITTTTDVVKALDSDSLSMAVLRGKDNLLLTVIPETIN

NHERF3_3, Q5T2W1 = target: T3, NHERF3_3, Q5T2W1
T3 sequence (Q5T2W1 238-333, limits assumed, looked up): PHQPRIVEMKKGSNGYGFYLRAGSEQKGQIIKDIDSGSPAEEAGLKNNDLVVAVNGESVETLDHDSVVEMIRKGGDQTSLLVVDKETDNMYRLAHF

Inadl_6, Q8NI35 = target: Inadl_6, Q8NI35
GRIP2_4, Q9C0E4 = target: GRIP2_4, Q9C0E4
MAGI2_5, Q86UL8 = target: MAGI2_5, Q86UL8
GRID2IP_1, A4D2P6 = target: GRID2IP_1, A4D2P6
DLG4_1, P78352 = target: DLG4_1, P78352
GRIP2_7, Q9C0E4 = target: GRIP2_7, Q9C0E4
Inadl_2, Q8NI35 = target: Inadl_2, Q8NI35
LIN7C, Q9NUP9 = target: T4, LIN7C, Q9NUP9
T4 sequence (Q9NUP9 88-185, limits assumed, looked up): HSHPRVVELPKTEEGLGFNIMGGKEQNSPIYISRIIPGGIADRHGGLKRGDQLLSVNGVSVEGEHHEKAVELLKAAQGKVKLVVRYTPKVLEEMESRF

APBA3_1, O96018 = target: T5, APBA3_1, O96018
T5 sequence (O96018 389-490, limits assumed, looked up): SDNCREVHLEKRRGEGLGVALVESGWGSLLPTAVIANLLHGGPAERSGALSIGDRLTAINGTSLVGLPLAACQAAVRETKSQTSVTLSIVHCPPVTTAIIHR

GRASP, Q7Z6J2 = target: GRASP, Q7Z6J2
CARD11, Q9BXL7 = target: T6, CARD11, Q9BXL7
T6 sequence (Q9BXL7 662-765, limits assumed, looked up): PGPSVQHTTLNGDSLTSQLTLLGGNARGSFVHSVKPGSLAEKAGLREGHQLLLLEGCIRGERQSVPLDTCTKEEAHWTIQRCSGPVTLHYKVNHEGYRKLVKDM

LDB3, O75112 = target: LDB3, O75112
DFNB31_1, Q9P202 = target: T7, DFNB31_1, Q9P202
T7 sequence (Q9P202 135-233, limits assumed, looked up): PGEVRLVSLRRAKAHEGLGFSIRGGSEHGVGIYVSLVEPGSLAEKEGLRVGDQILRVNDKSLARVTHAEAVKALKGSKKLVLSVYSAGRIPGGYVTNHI

DLG2_2, Q15700 = target: DLG2_2, Q15700
SNX27, Q96L92 = target: SNX27, Q96L92
RAPGEF6, Q8TEU7 = target: T8, RAPGEF6, Q8TEU7
T8 sequence (Q8TEU7 525-625, limits assumed, looked up): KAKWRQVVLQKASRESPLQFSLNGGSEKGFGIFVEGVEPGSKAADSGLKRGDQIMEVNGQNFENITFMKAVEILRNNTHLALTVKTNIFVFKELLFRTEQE

NHERF2_2, Q15599 = target: NHERF2_2, Q15599
SHANK1, Q9Y566 = target: T9, SHANK1, Q9Y566
T9 sequence (Q9Y566 658-767, limits assumed, looked up): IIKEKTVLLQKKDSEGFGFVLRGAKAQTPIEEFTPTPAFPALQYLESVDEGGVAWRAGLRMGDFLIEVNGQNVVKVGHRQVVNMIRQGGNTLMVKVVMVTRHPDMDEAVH

MAGI2_2, Q86UL8 = target: MAGI2_2, Q86UL8
MAGI3_2, Q5TCQ9 = target: MAGI3_2, Q5TCQ9
NHERF4_4, Q86UT5 = target: NHERF4_4, Q86UT5
FRMPD2_2, Q68DX3 = target: FRMPD2_2, Q68DX3
PARD3_3, Q8TEW0 = target: PARD3_3, Q8TEW0
LIMK2, P53671 = target: LIMK2, P53671
[1] = plain residues with an end cap or a label only (N-terminal biotin on a linker: ado-ado)
[2] = plain residues with an end cap or a label only (N-terminal biotin on a linker: (peg)3)

Measured: pKd

GRASP, Q7Z6J2, sequence (Q7Z6J2 96-193): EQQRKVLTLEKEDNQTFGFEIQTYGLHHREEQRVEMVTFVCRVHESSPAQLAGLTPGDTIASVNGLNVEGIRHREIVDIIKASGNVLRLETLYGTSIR
Inadl_2, Q8NI35, sequence (Q8NI35 238-335): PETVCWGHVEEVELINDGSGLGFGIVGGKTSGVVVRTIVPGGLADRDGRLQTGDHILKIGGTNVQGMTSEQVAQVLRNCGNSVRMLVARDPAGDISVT
NHERF4_4, Q86UT5, sequence (Q86UT5 464-550): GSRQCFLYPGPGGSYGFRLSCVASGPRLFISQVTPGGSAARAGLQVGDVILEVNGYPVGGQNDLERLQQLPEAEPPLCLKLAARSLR
NHERF2_2, Q15599, sequence (Q15599 142-238): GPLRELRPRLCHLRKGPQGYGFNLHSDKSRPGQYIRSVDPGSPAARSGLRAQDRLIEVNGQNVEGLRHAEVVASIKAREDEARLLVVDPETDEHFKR
FRMPD2_2, Q68DX3, sequence (Q68DX3 944-1038): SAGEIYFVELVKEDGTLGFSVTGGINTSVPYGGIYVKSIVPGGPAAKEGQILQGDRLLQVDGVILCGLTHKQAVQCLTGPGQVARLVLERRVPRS
LIMK2, P53671, sequence (P53671 143-248): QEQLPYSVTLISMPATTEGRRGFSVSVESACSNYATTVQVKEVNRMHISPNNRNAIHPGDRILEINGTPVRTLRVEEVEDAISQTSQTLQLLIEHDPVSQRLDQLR
MAGI3_2, Q5TCQ9, sequence (Q5TCQ9 398-503): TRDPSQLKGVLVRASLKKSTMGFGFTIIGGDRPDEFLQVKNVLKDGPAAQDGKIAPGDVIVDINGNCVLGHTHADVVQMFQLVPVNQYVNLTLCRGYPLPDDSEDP
MAGI2_5, Q86UL8, sequence (Q86UL8 915-1017): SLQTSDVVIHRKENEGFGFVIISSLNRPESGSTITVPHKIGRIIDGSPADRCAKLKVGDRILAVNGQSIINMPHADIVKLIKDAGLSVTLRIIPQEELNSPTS
GRID2IP_1, A4D2P6, sequence (A4D2P6 1-87): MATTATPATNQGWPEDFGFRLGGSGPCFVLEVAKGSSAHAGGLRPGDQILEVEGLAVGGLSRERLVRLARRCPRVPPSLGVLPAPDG
PARD3_3, Q8TEW0, sequence (Q8TEW0 582-685): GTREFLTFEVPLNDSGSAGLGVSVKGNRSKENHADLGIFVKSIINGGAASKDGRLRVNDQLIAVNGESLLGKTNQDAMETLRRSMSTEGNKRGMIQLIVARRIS
LDB3, O75112, sequence (O75112 1-94): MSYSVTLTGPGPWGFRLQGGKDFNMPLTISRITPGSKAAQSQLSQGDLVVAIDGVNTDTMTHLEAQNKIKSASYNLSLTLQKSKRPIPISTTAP
DLG4_1, P78352, sequence (P78352 62-152): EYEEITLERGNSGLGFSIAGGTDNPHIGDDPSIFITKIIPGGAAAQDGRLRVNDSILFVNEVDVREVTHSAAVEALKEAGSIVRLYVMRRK
GRIP2_4, Q9C0E4, sequence (Q9C0E4 446-548): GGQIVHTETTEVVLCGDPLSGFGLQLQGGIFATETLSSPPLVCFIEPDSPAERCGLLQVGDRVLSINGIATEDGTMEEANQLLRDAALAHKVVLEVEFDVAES
GRIP2_7, Q9C0E4, sequence (Q9C0E4 934-1023): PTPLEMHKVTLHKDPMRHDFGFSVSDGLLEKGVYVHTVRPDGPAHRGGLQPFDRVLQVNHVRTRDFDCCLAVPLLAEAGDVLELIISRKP
Inadl_6, Q8NI35, sequence (Q8NI35 1058-1167): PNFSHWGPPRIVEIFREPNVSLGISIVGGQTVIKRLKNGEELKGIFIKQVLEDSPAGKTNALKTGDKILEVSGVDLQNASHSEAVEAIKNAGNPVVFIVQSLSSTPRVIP
MAGI2_2, Q86UL8, sequence (Q86UL8 410-522): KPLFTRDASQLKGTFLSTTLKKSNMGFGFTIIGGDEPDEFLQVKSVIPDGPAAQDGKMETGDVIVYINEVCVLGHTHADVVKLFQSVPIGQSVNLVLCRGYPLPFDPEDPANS
DLG2_2, Q15700, sequence (Q15700 189-283): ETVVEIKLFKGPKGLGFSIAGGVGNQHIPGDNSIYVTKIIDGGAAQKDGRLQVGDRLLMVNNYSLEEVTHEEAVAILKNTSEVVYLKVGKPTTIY
HTRA1, Q92743, sequence (Q92743 360-477): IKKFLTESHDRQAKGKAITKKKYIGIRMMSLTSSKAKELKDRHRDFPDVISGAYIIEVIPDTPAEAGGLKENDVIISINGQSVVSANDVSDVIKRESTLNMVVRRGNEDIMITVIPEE

DDASLPVSDV [PLEKHA1, Q9HB21]
4.87: FRMPD2_2, Q68DX3; [1]
below the threshold: HTRA1, Q92743; [1] | GRIP1_3, Q9Y3R0; [1] | HTRA4, P83105; [1] | NHERF3_3, Q5T2W1; [1] | GRIP2_4, Q9C0E4; [1] | MAGI2_5, Q86UL8; [1] | GRID2IP_1, A4D2P6; [1] | DLG4_1, P78352; [1] | GRIP2_7, Q9C0E4; [1] | Inadl_2, Q8NI35; [1] | APBA3_1, O96018; [1] | CARD11, Q9BXL7; [1] | LDB3, O75112; [1] | DLG2_2, Q15700; [1] | SNX27, Q96L92; [1] | RAPGEF6, Q8TEU7; [1] | NHERF2_2, Q15599; [1] | SHANK1, Q9Y566; [1] | MAGI2_2, Q86UL8; [1] | MAGI3_2, Q5TCQ9; [1] | NHERF4_4, Q86UT5; [1] | PARD3_3, Q8TEW0; [1] | LIMK2, P53671; [1]
3.65: Inadl_6, Q8NI35; [1] | GRASP, Q7Z6J2; [1]
3.75: DFNB31_1, Q9P202; [1]
4.01: LIN7C, Q9NUP9; [1]

PPGKHLVTEV [KCNA7, Q96RP8]
4.64: DLG4_1, P78352; [1]
4.61: HTRA4, P83105; [1]
5.01: DLG2_2, Q15700; [1]
4.6: GRASP, Q7Z6J2; [1]
4.32: MAGI2_2, Q86UL8; [1]
4.73: MAGI2_5, Q86UL8; [1]
4.84: HTRA1, Q92743; [1]
4.95: SNX27, Q96L92; [1]
3.52: RAPGEF6, Q8TEU7; [1]
4.71: MAGI3_2, Q5TCQ9; [1]
3.71: SHANK1, Q9Y566; [1]
4.51: FRMPD2_2, Q68DX3; [1]
below the threshold: GRIP1_3, Q9Y3R0; [1] | NHERF3_3, Q5T2W1; [1] | GRIP2_4, Q9C0E4; [1] | GRID2IP_1, A4D2P6; [1] | GRIP2_7, Q9C0E4; [1] | Inadl_2, Q8NI35; [1] | LIN7C, Q9NUP9; [1] | APBA3_1, O96018; [1] | CARD11, Q9BXL7; [1] | LDB3, O75112; [1] | DFNB31_1, Q9P202; [1] | NHERF2_2, Q15599; [1] | NHERF4_4, Q86UT5; [1] | PARD3_3, Q8TEW0; [1] | LIMK2, P53671; [1]
3.56: Inadl_6, Q8NI35; [1]

SPDRDRESIV [SCN5A, Q14524]
below the threshold: GRIP1_3, Q9Y3R0; [1] | NHERF3_3, Q5T2W1; [1] | Inadl_6, Q8NI35; [1] | GRIP2_4, Q9C0E4; [1] | GRID2IP_1, A4D2P6; [1] | GRIP2_7, Q9C0E4; [1] | Inadl_2, Q8NI35; [1] | APBA3_1, O96018; [1] | GRASP, Q7Z6J2; [1] | CARD11, Q9BXL7; [1] | LDB3, O75112; [1] | RAPGEF6, Q8TEU7; [1] | NHERF2_2, Q15599; [1] | SHANK1, Q9Y566; [1] | LIMK2, P53671; [1]
3.86: PARD3_3, Q8TEW0; [1]
4.51: HTRA1, Q92743; [1]
4.9: MAGI3_2, Q5TCQ9; [1]
5.26: SNX27, Q96L92; [1]
4.46: DLG4_1, P78352; [1]
3.9: HTRA4, P83105; [1]
3.88: NHERF4_4, Q86UT5; [1]
4.26: MAGI2_2, Q86UL8; [1]
4.58: DLG2_2, Q15700; [1]
3.76: FRMPD2_2, Q68DX3; [1]
4.12: MAGI2_5, Q86UL8; [1] | LIN7C, Q9NUP9; [1]
3.58: DFNB31_1, Q9P202; [1]

QQSMSSADSTQA [SARS-Cov2-N, P0DTC9]
below the threshold: HTRA1, Q92743; [2] | GRIP1_3, Q9Y3R0; [2] | HTRA4, P83105; [2] | NHERF3_3, Q5T2W1; [2] | Inadl_6, Q8NI35; [2] | GRIP2_4, Q9C0E4; [2] | MAGI2_5, Q86UL8; [2] | GRID2IP_1, A4D2P6; [2] | DLG4_1, P78352; [2] | GRIP2_7, Q9C0E4; [2] | Inadl_2, Q8NI35; [2] | LIN7C, Q9NUP9; [2] | APBA3_1, O96018; [2] | GRASP, Q7Z6J2; [2] | CARD11, Q9BXL7; [2] | LDB3, O75112; [2] | DFNB31_1, Q9P202; [2] | DLG2_2, Q15700; [2] | SNX27, Q96L92; [2] | RAPGEF6, Q8TEU7; [2] | NHERF2_2, Q15599; [2] | SHANK1, Q9Y566; [2] | MAGI2_2, Q86UL8; [2] | MAGI3_2, Q5TCQ9; [2] | NHERF4_4, Q86UT5; [2] | FRMPD2_2, Q68DX3; [2] | PARD3_3, Q8TEW0; [2] | LIMK2, P53671; [2]

ELSATVTTDC [TRIP6, Q15654]
3.63: SHANK1, Q9Y566; [1]
3.83: NHERF2_2, Q15599; [1]
4.57: SNX27, Q96L92; [1]
3.59: DLG2_2, Q15700; [1]
3.87: NHERF3_3, Q5T2W1; [1]
3.47: FRMPD2_2, Q68DX3; [1]
3.54: GRASP, Q7Z6J2; [1]
below the threshold: GRIP1_3, Q9Y3R0; [1] | HTRA4, P83105; [1] | Inadl_6, Q8NI35; [1] | GRIP2_4, Q9C0E4; [1] | MAGI2_5, Q86UL8; [1] | GRID2IP_1, A4D2P6; [1] | DLG4_1, P78352; [1] | GRIP2_7, Q9C0E4; [1] | Inadl_2, Q8NI35; [1] | LIN7C, Q9NUP9; [1] | APBA3_1, O96018; [1] | CARD11, Q9BXL7; [1] | RAPGEF6, Q8TEU7; [1] | MAGI2_2, Q86UL8; [1] | MAGI3_2, Q5TCQ9; [1] | NHERF4_4, Q86UT5; [1] | PARD3_3, Q8TEW0; [1] | LIMK2, P53671; [1]
3.56: HTRA1, Q92743; [1]
3.72: LDB3, O75112; [1]
3.81: DFNB31_1, Q9P202; [1]
